Test results reported in patent US20230220047A1 (NORWEGIAN UNIVERSITY OF SCIENCE AND TECHNOLOGY NTNU, published 2023).
Ends that are not written are not given here.

T1: IRAK4 (endogenous, human) (human, UniProt Q9NWZ3 1-460)
T1 construct: also called interleukin 1 receptor-associated kinase 4
T1 sequence (looked up): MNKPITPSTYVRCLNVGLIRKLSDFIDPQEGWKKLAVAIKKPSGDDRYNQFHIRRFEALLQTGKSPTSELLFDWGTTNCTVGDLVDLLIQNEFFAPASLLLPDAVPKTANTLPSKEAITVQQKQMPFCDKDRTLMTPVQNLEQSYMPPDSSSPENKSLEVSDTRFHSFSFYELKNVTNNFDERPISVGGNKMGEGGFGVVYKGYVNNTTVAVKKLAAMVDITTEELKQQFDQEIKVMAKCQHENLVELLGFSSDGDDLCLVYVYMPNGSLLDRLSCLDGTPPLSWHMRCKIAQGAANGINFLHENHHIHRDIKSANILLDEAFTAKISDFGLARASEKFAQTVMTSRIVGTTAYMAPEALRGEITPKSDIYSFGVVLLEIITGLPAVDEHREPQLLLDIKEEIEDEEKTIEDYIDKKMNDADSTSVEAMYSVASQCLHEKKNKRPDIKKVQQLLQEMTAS

T2: TRAF6 (endogenous, human) (human, UniProt Q9Y4K3 1-522)
T2 sequence (looked up): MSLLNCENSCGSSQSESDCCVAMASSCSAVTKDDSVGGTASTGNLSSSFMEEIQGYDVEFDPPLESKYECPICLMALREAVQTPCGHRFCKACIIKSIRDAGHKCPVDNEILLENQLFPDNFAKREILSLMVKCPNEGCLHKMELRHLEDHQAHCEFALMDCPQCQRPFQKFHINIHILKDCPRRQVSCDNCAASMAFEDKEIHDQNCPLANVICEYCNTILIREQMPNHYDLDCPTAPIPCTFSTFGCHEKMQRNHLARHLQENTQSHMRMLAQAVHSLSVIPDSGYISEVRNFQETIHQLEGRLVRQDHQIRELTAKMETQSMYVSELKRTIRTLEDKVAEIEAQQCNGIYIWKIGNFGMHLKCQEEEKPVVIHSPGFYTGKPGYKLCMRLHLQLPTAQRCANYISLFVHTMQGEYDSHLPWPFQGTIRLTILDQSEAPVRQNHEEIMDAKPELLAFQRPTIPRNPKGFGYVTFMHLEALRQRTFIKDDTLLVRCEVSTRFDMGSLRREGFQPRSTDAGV

T3: IRAK2 (endogenous, human) (human, UniProt O43187 1-625)
T3 sequence (looked up): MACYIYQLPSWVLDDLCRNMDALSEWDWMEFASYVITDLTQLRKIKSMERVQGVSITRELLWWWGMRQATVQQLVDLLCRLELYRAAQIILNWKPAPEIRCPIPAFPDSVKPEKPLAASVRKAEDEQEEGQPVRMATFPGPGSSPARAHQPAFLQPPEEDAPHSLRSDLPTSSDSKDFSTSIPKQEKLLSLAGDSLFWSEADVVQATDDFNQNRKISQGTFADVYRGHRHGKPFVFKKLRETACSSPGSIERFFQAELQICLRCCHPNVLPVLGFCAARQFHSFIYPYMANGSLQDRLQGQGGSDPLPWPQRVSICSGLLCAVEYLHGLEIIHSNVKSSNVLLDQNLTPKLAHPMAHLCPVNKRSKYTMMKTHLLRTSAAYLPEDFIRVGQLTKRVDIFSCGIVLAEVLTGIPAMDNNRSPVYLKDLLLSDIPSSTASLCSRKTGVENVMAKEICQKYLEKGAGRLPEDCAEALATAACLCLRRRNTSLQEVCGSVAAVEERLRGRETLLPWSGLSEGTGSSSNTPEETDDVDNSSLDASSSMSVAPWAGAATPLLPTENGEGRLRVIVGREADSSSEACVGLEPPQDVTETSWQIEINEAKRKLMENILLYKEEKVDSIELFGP

B1: Pep7-Penetratin-biotin (C-terminally biotinylated P7-Pen) (peptide)
peptide: ITVYASVTLTGRQIKIWFQNRRMKWKK-biotin
modifications: not fully specified (N-terminus); also: biotin attachment not given here
notes: Custom synthesis by GenScript; immobilised on NeutrAvidin agarose; also called P7-Pen peptide; biotinylated P7 peptides
B2: SLAMF1 (human, no tag stated; overexpressed in HEK293T cells or endogenous in primary human macrophages) (receptor, UniProt Q13291 21-335, looked up)
chain: ASYGTGGRMMNCPKILRQLGSKVLLPLTYERINKSMNKSIHIVVTMAKSLENSVENKIVSLDPSEAGPPRYLGDRYKFYLENLTLGIRESRKEDEGWYLMTLEKNVSVQRFCLQLRLYEQVSTPEIKVLNKTQENGTCTLILGCTVEKGDHVAYSWSEKAGTHPLNPANSSHLLSLTLGPQHADNIYICTVSNPISNNSQTFSPWPGCRTDPSETKPWAVYAGLLGGVIMILIMVVILQLRRRGKTNHYQTTVEKKSLTIYAQVQKPGPLQKKLDSFPAQDPCTTIYVAATEPVPESVQETNSITVYASVTLPES
notes: Used for SLAMF1 in the TRAM^Flag and Mal^Flag co-precipitations (no tag stated there) and for endogenous SLAMF1 precipitated with anti-SLAMF1 mAb E-11; also called SLAMF1 wt; SLAMF1 protein

Legend:
Mal (endogenous, human) = biological target: T4, Mal (endogenous, human) (human, UniProt P58753 1-221, limits assumed); experiment: biotinylated peptide on NeutrAvidin beads, lysates of primary human macrophages, Western blot; may be indirect, within a complex
T4 construct: also called Mal/TIRAP; MyD88-adaptor-like protein
Procedure: (§1) Precipitations were performed using biotinylated peptides on lysates of primary human macrophages stimulated with LPS (100 ng/ml) for 15, 30 or 60 min and unstimulated cells (A), and stimulated with LPS for 30 or 60 min, or CL075/TLR8 ligand for 15 or 30 min (B).
(§2) Immunoprecipitations with the biotinylated peptides Penetratin-biotin and Pep7-Penetratin-biotin (synthesised by custom order by GenScript) were performed by coating NeutrAvidin® Agarose Resin (Thermo Scientific) with peptide by incubating 40 μl 50% agarose slurry with 10 μl 2 mM peptides in 300 μl lysis buffer (for one precipitation reaction) (300 mM NaCl, 50 mM TrisHCl (pH 8.0), 1 mM EDTA, 1% Triton X100). Beads were washed 3 times with lysis buffer to remove unbound peptides before applying cellular extracts. Cell lysis was performed in the same lysis buffer, both for HEK293T cells and primary human macrophages. Precipitations were carried out by rotation at 4° C. for 30′-1 h, followed by four washes with lysis buffer. Agarose resin with precipitated protein complexes was heated in loading buffer 1×NuPAGE® LDS Sample Buffer (Thermo Fisher Scientific) containing 20 mM DTT and analysed by Western blotting.
(§3) To look for interactions between P7 and proteins in the Myddosome complex, biotinylated P7 peptides were pre-incubated with lysates of primary human macrophages (unstimulated and stimulated by LPS or CL075) and NeutrAvidin beads, followed by Western blot analysis of precipitates (FIG. 26). […] Upon stimulation with LPS, the complex of P7-interacting proteins attracted TRAF6 and TAK1 (FIG. 26A).

[1] = biological target: T5, IRAK1 (endogenous, human) (human, UniProt P51617 1-712, limits assumed); experiment: as above
T5 construct: SLAMF1 co-precipitated the ubiquitinated/phosphorylated form after LPS stimulation; also called interleukin 1 receptor-associated kinase 1; modified IRAK1
Procedure: as §1, §2, §3

[2] = biological target: T1, IRAK4 (endogenous, human); experiment: as above
Procedure: as §1, §2, §3

[3] = biological target: T6, MyD88 (endogenous, human) (human, UniProt Q99836 1-296); experiment: as above
T6 construct: also called Myeloid Differentiation primary response protein 88
Procedure: as §1, §2, §3

[4] = biological target: T2, TRAF6 (endogenous, human); experiment: biotinylated peptide on NeutrAvidin beads, lysates of LPS-stimulated primary human macrophages, Western blot; within a complex
Procedure: as §1
as §2, with “blotting. […]” for “blotting.”

[5] = biological target: murine TRAM protein (overexpressed in HEK 293T cells) (murine, UniProt Q8BJQ4 2-232, limits assumed); experiment: C-terminally biotinylated peptide on Neutravidin agarose, lysates of HEK 293T cells overexpressing TRAM
Procedure: as §2
(§4) Murine disease models are the most accessible and widely used pre-clinical model for testing new drugs. […] To test the potential interaction of the P7 peptide with murine TRAM vs. human TRAM protein, we performed precipitations of C-terminally biotinylated Pen or P7-Pen peptides.

[6] = biological target: T7, human TRAM (endogenous in primary human macrophages, or overexpressed in HEK 293T cells) (human, UniProt Q86XR7 2-235, limits assumed); experiment: as above
T7 construct: also called TICAM2
Procedure: as §2, §4

[7] = biological target: T3, IRAK2 (endogenous, human); experiment: endogenous co-precipitation with anti-SLAMF1 mAb (E-11) on magnetic beads from primary human macrophages, Western blot
Procedure: The SLAMF1 and TRAM interaction was used as a positive control. Primary human macrophages were pre-treated with 15 μM peptides for 30 min, stimulated with LPS for another 15′, 30′ or 1 h, lysed and used for co-precipitation with anti-SLAMF1 mouse mAbs (E-11) covalently bound to magnetic beads, followed by Western blot analysis. Proteins in lysates were analysed as input control.
Indeed, a potential P7-Pen interaction motif is located within the protein kinase domain of IRAK4. Alignment of IRAKs with the TRAM-derived sequence that is targeted by the peptide identified sequences in IRAK1 and IRAK4 that are highly similar to the P7-interacting motif in TRAM/TICAM2 (not shown). […] IRAK4 also co-precipitated with GST-SLAMF1ct in GST pull down assays from lysates of primary human macrophages (data not shown).

T7 sequence (Q86XR7 2-235 limits assumed): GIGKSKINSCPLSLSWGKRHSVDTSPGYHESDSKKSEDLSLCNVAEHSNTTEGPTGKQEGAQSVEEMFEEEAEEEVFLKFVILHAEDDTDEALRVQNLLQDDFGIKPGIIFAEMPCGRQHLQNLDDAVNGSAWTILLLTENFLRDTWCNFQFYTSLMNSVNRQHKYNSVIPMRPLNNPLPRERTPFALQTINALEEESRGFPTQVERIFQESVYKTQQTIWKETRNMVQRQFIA
T5 sequence (P51617 whole entry): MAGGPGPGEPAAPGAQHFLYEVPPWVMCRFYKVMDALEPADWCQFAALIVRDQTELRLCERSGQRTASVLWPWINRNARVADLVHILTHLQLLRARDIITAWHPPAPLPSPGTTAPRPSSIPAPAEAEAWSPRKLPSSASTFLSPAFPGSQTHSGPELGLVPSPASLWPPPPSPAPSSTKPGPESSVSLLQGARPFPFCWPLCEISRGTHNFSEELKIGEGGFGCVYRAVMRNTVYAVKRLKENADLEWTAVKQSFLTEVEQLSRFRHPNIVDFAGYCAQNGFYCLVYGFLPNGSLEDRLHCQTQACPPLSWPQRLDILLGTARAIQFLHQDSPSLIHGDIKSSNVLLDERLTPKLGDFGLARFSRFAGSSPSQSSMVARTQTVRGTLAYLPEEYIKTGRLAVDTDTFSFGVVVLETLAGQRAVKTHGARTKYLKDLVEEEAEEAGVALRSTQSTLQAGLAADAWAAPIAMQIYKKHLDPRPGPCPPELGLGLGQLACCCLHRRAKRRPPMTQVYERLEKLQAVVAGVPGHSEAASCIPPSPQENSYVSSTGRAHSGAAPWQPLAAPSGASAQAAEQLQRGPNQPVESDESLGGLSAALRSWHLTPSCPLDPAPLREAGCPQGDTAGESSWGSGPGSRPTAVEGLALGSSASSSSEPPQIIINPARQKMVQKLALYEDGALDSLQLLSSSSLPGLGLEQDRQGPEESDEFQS
T6 sequence (Q99836 whole entry): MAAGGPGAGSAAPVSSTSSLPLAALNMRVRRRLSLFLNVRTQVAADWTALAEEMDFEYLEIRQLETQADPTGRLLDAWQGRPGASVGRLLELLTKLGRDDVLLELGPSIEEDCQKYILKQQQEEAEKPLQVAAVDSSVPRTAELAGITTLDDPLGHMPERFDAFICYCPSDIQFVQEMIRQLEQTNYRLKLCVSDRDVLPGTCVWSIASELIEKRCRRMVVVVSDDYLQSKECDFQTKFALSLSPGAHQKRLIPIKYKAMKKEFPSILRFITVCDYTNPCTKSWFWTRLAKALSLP
Chain of murine TRAM protein (overexpressed in HEK 293T cells) (Q8BJQ4 2-232 limits assumed): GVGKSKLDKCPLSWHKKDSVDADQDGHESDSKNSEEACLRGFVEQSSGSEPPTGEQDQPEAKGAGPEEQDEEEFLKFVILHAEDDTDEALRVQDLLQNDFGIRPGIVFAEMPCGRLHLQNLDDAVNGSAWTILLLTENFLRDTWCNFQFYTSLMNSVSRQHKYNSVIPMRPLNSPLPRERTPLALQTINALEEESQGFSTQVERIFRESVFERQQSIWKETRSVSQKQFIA
T4 sequence (P58753 whole entry): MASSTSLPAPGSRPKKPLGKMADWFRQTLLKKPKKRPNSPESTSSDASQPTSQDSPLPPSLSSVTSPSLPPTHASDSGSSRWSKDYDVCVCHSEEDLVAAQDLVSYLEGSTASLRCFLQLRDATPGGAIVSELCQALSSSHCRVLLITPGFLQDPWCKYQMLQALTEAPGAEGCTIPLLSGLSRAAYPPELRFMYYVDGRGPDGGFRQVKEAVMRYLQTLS

| Binder | binding result (Mal (endogenous, human)) | binding result [1] | binding result [2] | binding result [3] | binding result [4] | binding result [5] | binding result [6] | binding result [7] |
| --- | --- | --- | --- | --- | --- | --- | --- | --- |
| B1 | binds | binds | binds | binds | binds | binds | binds |  |
| B2 |  |  |  |  |  |  |  | no binding |
